For the series the following is noted: phosphorylation at S2808.

Regarding “RyR2 (ryanodine receptor type 2): S2808D phosphomimetic”, the other entry was “increases”.
Turning to “RyR2 (ryanodine receptor type 2): S2808D phosphomimetic (expressing cells also treated with H2O2; irreversible oxidative modifications retained)”, the structure_or_conformation result was “changes, RMSD normalized projection = 0.11 (subprimed state)”.

The values are drawn from publication PMC11402997.
